Test results from patent US20220265819A1 (GEN2 NEUROSCIENCE, published 2022).
Where no end group is shown, it is not given here.

Legend:
Bovine serum albumin [1] = molecular target: T1, Bovine serum albumin (bovine, UniProt P02769 25-607); experiment: phage ELISA
T1 construct: Negative control antigen in ELISA; also called BSA
Protocol: (§1) 10.1 Phage ELISA: Supernatants prepared from bacterial cultures infected with phage displaying scFv were tested for binding to full length recombinant 2N4R tau (100 ng/well), target peptide (SEQ ID NO: 13) conjugated to BSA or transferrin (1 μg/well) or BSA (1% in TBS) using standard methods. Antigen was coated onto ELISA plates, then removed, and plates were blocked for 1 h with 5% dried milk in TBS. Samples were diluted 1:25 in 1% BSA/TBS then added to the ELISA plate for 1 h at room temperature (RT). Plates were then washed ×4 with TBS/0.1% Tween (TBST). Alpha-M13-HRP antibody (Abcam, Cambridge, UK) was added (1:5000 dilution in 5% milk/TBS) and incubated for 1 h at RT before washing ×4. TMB ELISA solution was added to each well for 10 min at RT, followed by 1 M sulphuric acid. OD was then measured at 450 nm.

[2] = molecular target: T2, antigen peptide [C]-SPVVSGDTSPRHLSN-amide (tau 396-410 with N-terminal cysteine) (human); experiment: phage ELISA, phage supernatant 1:25, anti-M13-HRP, n=1
T2 construct: Not phosphorylated; Coated free, or conjugated through the N-terminal Cys to BSA or transferrin (phage ELISA); The N-terminal Cys is not part of tau; also called target peptide; short linear peptide
T2 peptide: CSPVVSGDTSPRHLSN-NH2
From the text: (§2) FIG. 7. A panel of phage display-derived anti-tau scFv bind to linear immunogen peptide and full length 2N4R tau in phage ELISA. Phage expressing scFv clones bind to the short linear peptide (SEQ ID NO: 13) (A) conjugated to BSA (black bars) or transferrin (white bars) and to full length recombinant 2N4R tau (B). […] Binding of phage was detected using an HRP-conjugated anti-alpha-M13 antibody and data shown are from a representative experiment (n=1).
as §1

[3] = molecular target: T3, full length recombinant human 2N4R tau (amino acids 1-441) (human, UniProt P10636 1-758); experiment: phage ELISA, tau 100 ng/well, phage supernatant 1:25, anti-M13-HRP, n=1
T3 construct: Bought (rPeptide); recombinant, non-phosphorylated; also called recombinant tau
T3 sequence (P10636 other isoform, or with tags, fused parts or gaps limits assumed): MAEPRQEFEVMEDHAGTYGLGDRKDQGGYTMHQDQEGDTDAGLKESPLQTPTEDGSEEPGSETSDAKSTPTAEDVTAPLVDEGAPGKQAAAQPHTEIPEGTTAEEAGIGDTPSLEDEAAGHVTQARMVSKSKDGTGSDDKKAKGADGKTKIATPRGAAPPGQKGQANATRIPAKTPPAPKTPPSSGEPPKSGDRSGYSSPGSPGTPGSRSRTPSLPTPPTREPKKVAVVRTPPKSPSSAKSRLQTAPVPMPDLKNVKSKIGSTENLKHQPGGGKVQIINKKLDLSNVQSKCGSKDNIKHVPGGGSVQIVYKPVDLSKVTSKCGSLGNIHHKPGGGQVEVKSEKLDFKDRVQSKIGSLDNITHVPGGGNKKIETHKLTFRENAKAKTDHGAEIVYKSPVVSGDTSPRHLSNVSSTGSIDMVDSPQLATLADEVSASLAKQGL
From the text: as §2, §1

[4] = molecular target: T3, full length recombinant human 2N4R tau …; experiment: ELISA, HEK293F supernatant on coated tau
Protocol: (§3) Antigen was removed from wells and the plates were then blocked for 1 hour at RT with 5% dried milk in 1×TBS. Blocking solution was removed. HEK293F cell supernatant (10 μg/mL, to 0.0001 μg/mL in 1% BSA/1×TBS) was added to relevant wells, and plates were incubated for 1 hour at RT with gentle shaking. Plates were then washed four times with TBS/0.1% Tween (TBST). Anti-rabbit IgG-HRP antibody (Sigma. St Louis, Mo., USA), diluted 1:5000 in 5% milk/TBS, was added to each well and plates were incubated for 1 hour at RT with gentle shaking before being washed four times with TBST. 3,3′,5,5′-tetramethylbenzidine (TMB) ELISA solution was added to each well and plates were incubated for 15 mins at RT. An equal volume of 1 M sulfuric acid was added to each well and OD was measured at 450 nm.

[5] = molecular target: T3, full length recombinant human 2N4R tau …; experiment: ELISA, purified IgG on coated tau, half maximal signal
Protocol: as §3, with “13.1 ELISA analyses: ELISA plates were coated with antigen (full length tau, 100 ng/well; or 1% BSA in 1×TBS) in 1× carbonate-bicarbonate buffer for 1 hour at 37° C. Antigen” for “Antigen”, “1×TBS (200 μl/well).” for “1×TBS.”, “removed, diluted IgG” for “removed. HEK293F cell supernatant”, “(Sigma,” for “(Sigma.”, “TBST. 25 μL” for “TBST.”, “RT, an” for “RT. An”
Data were plotted as log concentration of IgG against ELISA signal (OD) and EC₅₀ values were calculated using a four parameter logistic equation with variable slope using GraphPad Prism (GraphPad Software Inc, La Jolla, Calif., USA).

Bovine serum albumin [6] = molecular target: T1, Bovine serum albumin; experiment: ELISA on 1% BSA, HEK293F supernatant, anti-rabbit IgG-HRP, n=1
Protocol: FIG. 9. A panel of anti-tau IgG bind to linear immunogen peptide and full length recombinant 2N4R tau in ELISA format. […] Binding of anti-tau IgG was detected using an HRP-conjugated anti-rabbit secondary antibody and data shown are from a representative experiment (n=1).
as §3

T1 sequence (P02769 25-607 limits assumed): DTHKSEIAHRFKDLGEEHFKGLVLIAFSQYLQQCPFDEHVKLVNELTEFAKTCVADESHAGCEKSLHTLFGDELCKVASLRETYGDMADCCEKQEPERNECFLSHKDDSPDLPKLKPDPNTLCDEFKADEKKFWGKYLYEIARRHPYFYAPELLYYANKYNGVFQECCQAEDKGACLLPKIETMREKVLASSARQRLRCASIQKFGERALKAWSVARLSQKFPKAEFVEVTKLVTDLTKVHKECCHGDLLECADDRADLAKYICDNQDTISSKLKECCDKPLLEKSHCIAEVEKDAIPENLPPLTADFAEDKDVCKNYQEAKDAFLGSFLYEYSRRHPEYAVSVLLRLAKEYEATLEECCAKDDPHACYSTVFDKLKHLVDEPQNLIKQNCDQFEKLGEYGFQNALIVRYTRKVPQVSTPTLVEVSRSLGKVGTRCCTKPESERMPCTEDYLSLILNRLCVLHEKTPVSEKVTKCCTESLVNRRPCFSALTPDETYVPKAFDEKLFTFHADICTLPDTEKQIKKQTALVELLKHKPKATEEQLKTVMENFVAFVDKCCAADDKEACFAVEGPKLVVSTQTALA

B1: Clone 11 human scFv (phage displayed) (scFv, V domains shown)
VH: QVQLQQWGGGLVKPSETLSLTCGVSGGSFNDYYWTWIRQPQGKGLEWIGEINHVGSSRYNPSLGSRVTMSVDTSKSQFSLTLTAVTAADTAIYYCTRGRKTRRVKFFSRYSRDWFDPWGQGSRVTVSS
VL: VMTQSPATLSVSPGERATLSCRASQSVSSNLAWYQQKPGQAPRLLIYGASSRATGIPDRFSGSGSGTDFTLTISRLEPEDFATYYCQQLNSYPFTFGPGTKVDIK
notes: also called rx7; C6
Does B1 bind (Bovine serum albumin [1])?
Result: no binding (tested: 1:25 phage supernatant)

Does B1 bind [2]?
Result: binds

Does B1 bind [3]?
Result: binds

B2: Clone 12 human scFv (phage displayed) (scFv, V domains shown)
VH: QVQLQQWGGGLVKPSETLSLTCGVSGGSFNDYYWTWIRQPQGKGLEWIGEINHVGSSRYNPSLGSRVTMSVDTSKSQFSLTLTAVTAADTAIYYCTRGRKTRRVKFFSRYSRDWFDPWGQGSRVTVSS
VL: MTQSPSSLSASVGDRVTITCRASQGISNYLAWYQQKPGKVPKLLIYAASTLQSGVPSRFSGSGSGTDFTLTISSLQPEDVATYYCQKYNSAPFTFGPGTKVDIK
notes: also called rx8; H11
Which results are given for B2?
binding result (Bovine serum albumin [1]): no binding (tested: 1:25 phage supernatant); binding result [2]: binds; binding result [3]: binds

B3: Clone 1 rabbit monoclonal IgG (antibody, V domains shown)
VH: QSLEESGGGLVKPGGTLTLTCTVSGFSLNNYDMSWVRQAPGKGLEWIGTVSTTYRRYYASWAKGRFTISKTSSTTVDLKMTSLTTEDTATYFCAASGIWGPGTLVTVSL
VL: AQVLTQTTSPVSAAVGGTVTINCQSSQRVYSNYLAWYQQKPGQPPKRLIFLASTLESGVPSRFSGSGSGTQFTLTISDLECDDAATYYCAGTYTGSIWAFGGGTEVVVKG
notes: Rabbit IgG expressed in HEK293F (pRab293); also called P1-D4; #28
B3 was tested. Which “OD (ELISA)” value [4] did it give?
Its value is 0.3 OD.

What about the EC50 [5] of the same binder?
Its EC50 is 0.73 nM.

Does B3 bind (Bovine serum albumin [6])?
Result: no binding (tested: supernatant 1:50)

B4: Clone 9 human scFv (phage displayed) (scFv, V domains shown)
VH: VQLVESGGGFVQPGGSLRLSCAASGFTFTDYGIHWVRQAPGKGLEWVAVISHDGSHKYYSDSVKGRSTISRDSSDNTVSLQLDGLRADDTALYYCAKDLPQTGALDFWGRGTLITVSS
VL: MTQSPSSLSASVGDRVTITCQASQDISNYLNWYQQKPGKAPKLLIYDASNLETGVPSRFSGSGSGTDFTFTISSLQPEDFATYYCQQANSFPITFGQGTRLEIK
notes: also called rx2; E5
Does B4 bind (Bovine serum albumin [1])?
Result: no binding (tested: 1:25 phage supernatant)

Does B4 bind [2]?
Result: binds

Does B4 bind [3]?
Result: binds
